Results from IntAct's records for PubMed 28062662.

B1: Glutaryl-CoA dehydrogenase, mitochondrial (Homo sapiens), Q92947 (parent)
chain: MALRGVSVRLLSRGPGLHVLRTWVSSAAQTEKGGRTQSQLAKSSRPEFDWQDPLVLEEQLTTDEILIRDTFRTYCQERLMPRILLANRNEVFHREIISEMGELGVLGPTIKGYGCAGVSSVAYGLLARELERVDSGYRSAMSVQSSLVMHPIYAYGSEEQRQKYLPQLAKGELLGCFGLTEPNSGSDPSSMETRAHYNSSNKSYTLNGTKTWITNSPMADLFVVWARCEDGCIRGFLLEKGMRGLSAPRIQGKFSLRASATGMIIMDGVEVPEENVLPGASSLGGPFGCLNNARYGIAWGVLGASEFCLHTARQYALDRMQFGVPLARNQLIQKKLADMLTEITLGLHACLQLGRLKDQDKAAPEMVSLLKRNNCGKALDIARQARDMLGGNGISDEYHVIRHAMNLEAVNTYEGTHDIHALILGRAITGIQAFTASK
partner: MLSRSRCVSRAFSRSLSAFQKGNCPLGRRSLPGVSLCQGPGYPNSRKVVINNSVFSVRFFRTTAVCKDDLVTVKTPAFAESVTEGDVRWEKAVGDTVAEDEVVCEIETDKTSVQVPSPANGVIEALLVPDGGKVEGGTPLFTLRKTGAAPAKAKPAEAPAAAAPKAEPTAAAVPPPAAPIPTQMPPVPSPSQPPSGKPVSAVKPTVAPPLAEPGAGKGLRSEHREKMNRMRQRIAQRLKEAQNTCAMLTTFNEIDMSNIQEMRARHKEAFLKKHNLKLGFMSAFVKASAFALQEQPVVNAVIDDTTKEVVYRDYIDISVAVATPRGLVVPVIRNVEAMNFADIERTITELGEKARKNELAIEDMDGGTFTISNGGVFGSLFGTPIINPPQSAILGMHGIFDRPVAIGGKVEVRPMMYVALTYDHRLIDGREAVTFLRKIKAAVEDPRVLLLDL

Variants of: B1
Conditions: with odo2_human DLST

effect of a mutation on the interaction	Variant
increasing interaction strength	MALRGVSVRLLSRGPGLHVLRTWVSSAAQTEKGGRTQSQLAKSSRPEFDWQDPLVLEEQLTTDEILIRDTFRTYCQERLMPRILLANRNEVFHREIISEMGELGVLGPTIKGYGCAGVSSVAYGLLARELERVDSGYRSAMSVQSSLVMHPIYAYGSEEQRQKYLPQLAKGELLGCFGLTEPNSGSDPSSMETRAHYNSSNKSYTLNGTKTWITNSPMADLFVVWARCEDGCIRGFLLEKGMRGLSALRIQGKFSLRASATGMIIMDGVEVPEENVLPGASSLGGPFGCLNNARYGIAWGVLGASEFCLHTARQYALDRMQFGVPLARNQLIQKKLADMLTEITLGLHACLQLGRLKDQDKAAPEMVSLLKRNNCGKALDIARQARDMLGGNGISDEYHVIRHAMNLEAVNTYEGTHDIHALILGRAITGIQAFTASK [P248L]
decreasing interaction strength	MALRGVSVRLLSRGPGLHVLRTWVSSAAQTEKGGRTQSQLAKSSRPEFDWQDPLVLEEQLTTDEILIRDTFRTYCQERLMPRILLANRNEVFHREIISEMGELGVLGPTIKGYGCAGVSSVAYGLLARELERVDSGYRSAMSVQSSLVMHPIYAYGSEEQRQKYLPQLAKGELLGCFGLTEPNSGSDPSSMETRAHYNSSNKSYTLNGTKTWITNSPMADLFVVWAPCEDGCIRGFLLEKGMRGLSAPRIQGKFSLRASATGMIIMDGVEVPEENVLPGASSLGGPFGCLNNARYGIAWGVLGASEFCLHTARQYALDRMQFGVPLARNQLIQKKLADMLTEITLGLHACLQLGRLKDQDKAAPEMVSLLKRNNCGKALDIARQARDMLGGNGISDEYHVIRHAMNLEAVNTYEGTHDIHALILGRAITGIQAFTASK [R227P]
increasing interaction strength	MALRGVSVRLLSRGPGLHVLRTWVSSAAQTEKGGRTQSQLAKSSRPEFDWQDPLVLEEQLTTDEILIRDTFRTYCQERLMPRILLANRNEVFHREIISEMGELGVLGPTIKGYGCAGVSSVAYGLLARELERVDSGYRSAMSVQSSLVMHPIYAYGSEEQRQKYLPQLAKGELLGCFGLTEPNSGSDPSSMETRAHYNSSNKSYTLNGTKTWITNSPMADLFVVWARCEDGCIRGFLLEKGMRCLSAPRIQGKFSLRASATGMIIMDGVEVPEENVLPGASSLGGPFGCLNNARYGIAWGVLGASEFCLHTARQYALDRMQFGVPLARNQLIQKKLADMLTEITLGLHACLQLGRLKDQDKAAPEMVSLLKRNNCGKALDIARQARDMLGGNGISDEYHVIRHAMNLEAVNTYEGTHDIHALILGRAITGIQAFTASK [G244C]
increasing interaction strength	MALRGVSVRLLSRGPGLHVLRTWVSSAAQTEKGGRTQSQLAKSSRPEFDWQDPLVLEEQLTTDEILIRDTFRTYCQERLMPRILLANRNEVFHREIISEMGELGVLGPTIKGYGCAGVSSVAYGLLARELERVDSGYRSAMSVQSSLVMHPIYAYGSEEQRQKYLPQLAKGELLGCFGLTEPNSGSDPSSMETRAHYNSSNKSYTLNGTKTWITNSPMADLFVVWARCEDGCIRGFLLEKGMRGLSAPRIQGKFSLRASATGVIIMDGVEVPEENVLPGASSLGGPFGCLNNARYGIAWGVLGASEFCLHTARQYALDRMQFGVPLARNQLIQKKLADMLTEITLGLHACLQLGRLKDQDKAAPEMVSLLKRNNCGKALDIARQARDMLGGNGISDEYHVIRHAMNLEAVNTYEGTHDIHALILGRAITGIQAFTASK [M263V]
increasing interaction strength	MALRGVSVRLLSRGPGLHVLRTWVSSAAQTEKGGRTQSQLAKSSRPEFDWQDPLVLEEQLTTDEILIRDTFRTYCQERLMPRILLANRNEVFHREIISEMGELGVLGPTIKGYGCAGVSSVAYGLLARELERVDSGYRSAMSVQSSLVMHPIYAYGSEEQRQKYLPQLAKGELLGCFGLTEPNSGSDPSSMETRAHYNSSNKSYTLNGTKTWITNSPMADLFVVWARCEDGCIRGFLLEKGMRGLSAPRIQGKFSLRASATGMIIMDGVEVPEENVLSGASSLGGPFGCLNNARYGIAWGVLGASEFCLHTARQYALDRMQFGVPLARNQLIQKKLADMLTEITLGLHACLQLGRLKDQDKAAPEMVSLLKRNNCGKALDIARQARDMLGGNGISDEYHVIRHAMNLEAVNTYEGTHDIHALILGRAITGIQAFTASK [P278S]

Further lines, the variant ahead of its results:

Variant	effect of a mutation on the interaction
MALRGVSVRLLSRGPGLHVLRTWVSSAAQTEKGGRTQSQLAKSSRPEFDCQDPLVLEEQLTTDEILIRDTFRTYCQERLMPRILLANRNEVFHREIISEMGELGVLGPTIKGYGCAGVSSVAYGLLARELERVDSGYRSAMSVQSSLVMHPIYAYGSEEQRQKYLPQLAKGELLGCFGLTEPNSGSDPSSMETRAHYNSSNKSYTLNGTKTWITNSPMADLFVVWARCEDGCIRGFLLEKGMRGLSAPRIQGKFSLRASATGMIIMDGVEVPEENVLPGASSLGGPFGCLNNARYGIAWGVLGASEFCLHTARQYALDRMQFGVPLARNQLIQKKLADMLTEITLGLHACLQLGRLKDQDKAAPEMVSLLKRNNCGKALDIARQARDMLGGNGISDEYHVIRHAMNLEAVNTYEGTHDIHALILGRAITGIQAFTASK [W50C]	increasing interaction strength
MALRGVSVRLLSRGPGLHVLRTWVSSAAQTEKGGRTQSQLAKSSRPEFDWQDPLVLEEQLTTDEILIRDTFRTYCQERLMPRILLANRNEVFHREIISEMGELGVLGPTIKGYGCAGVLSVAYGLLARELERVDSGYRSAMSVQSSLVMHPIYAYGSEEQRQKYLPQLAKGELLGCFGLTEPNSGSDPSSMETRAHYNSSNKSYTLNGTKTWITNSPMADLFVVWARCEDGCIRGFLLEKGMRGLSAPRIQGKFSLRASATGMIIMDGVEVPEENVLPGASSLGGPFGCLNNARYGIAWGVLGASEFCLHTARQYALDRMQFGVPLARNQLIQKKLADMLTEITLGLHACLQLGRLKDQDKAAPEMVSLLKRNNCGKALDIARQARDMLGGNGISDEYHVIRHAMNLEAVNTYEGTHDIHALILGRAITGIQAFTASK [S119L]	increasing interaction strength
MALRGVSVRLLSRGPGLHVLRTWVSSAAQTEKGGRTQSQLAKSSRPEFDWQDPLVLEEQLTTDEILIRDTFRTYCQERLMPRILLANRNEVFHREIISEMGELGVLGPTIKGYGCAGVSSVAYGLLARELERVDSGYRSAMSVQSSLVMHPIYAHGSEEQRQKYLPQLAKGELLGCFGLTEPNSGSDPSSMETRAHYNSSNKSYTLNGTKTWITNSPMADLFVVWARCEDGCIRGFLLEKGMRGLSAPRIQGKFSLRASATGMIIMDGVEVPEENVLPGASSLGGPFGCLNNARYGIAWGVLGASEFCLHTARQYALDRMQFGVPLARNQLIQKKLADMLTEITLGLHACLQLGRLKDQDKAAPEMVSLLKRNNCGKALDIARQARDMLGGNGISDEYHVIRHAMNLEAVNTYEGTHDIHALILGRAITGIQAFTASK [Y155H]	decreasing interaction strength
MALRGVSVRLLSRGPGLHVLRTWVSSAAQTEKGGRTQSQLAKSSRPEFDWQDPLVLEEQLTTDEILIRDTFRTYCQERLMPRILLANRNKVFHREIISEMGELGVLGPTIKGYGCAGVSSVAYGLLARELERVDSGYRSAMSVQSSLVMHPIYAYGSEEQRQKYLPQLAKGELLGCFGLTEPNSGSDPSSMETRAHYNSSNKSYTLNGTKTWITNSPMADLFVVWARCEDGCIRGFLLEKGMRGLSAPRIQGKFSLRASATGMIIMDGVEVPEENVLPGASSLGGPFGCLNNARYGIAWGVLGASEFCLHTARQYALDRMQFGVPLARNQLIQKKLADMLTEITLGLHACLQLGRLKDQDKAAPEMVSLLKRNNCGKALDIARQARDMLGGNGISDEYHVIRHAMNLEAVNTYEGTHDIHALILGRAITGIQAFTASK [E90K]	increasing interaction strength
MALRGVSVRLLSRGPGLHVLRTWVSSAAQTEKGGRTQSQLAKSSRPEFDWQDPLVLEEQLTTDEILIRDTFRTYCQERLMPRILLANRNEVFHLEIISEMGELGVLGPTIKGYGCAGVSSVAYGLLARELERVDSGYRSAMSVQSSLVMHPIYAYGSEEQRQKYLPQLAKGELLGCFGLTEPNSGSDPSSMETRAHYNSSNKSYTLNGTKTWITNSPMADLFVVWARCEDGCIRGFLLEKGMRGLSAPRIQGKFSLRASATGMIIMDGVEVPEENVLPGASSLGGPFGCLNNARYGIAWGVLGASEFCLHTARQYALDRMQFGVPLARNQLIQKKLADMLTEITLGLHACLQLGRLKDQDKAAPEMVSLLKRNNCGKALDIARQARDMLGGNGISDEYHVIRHAMNLEAVNTYEGTHDIHALILGRAITGIQAFTASK [R94L]	increasing interaction strength
